Measurements published in PMC3536711, “Directed Evolution of a Model Primordial Enzyme Provides Insights into the Development of the Genetic Code” (PLoS Genetics, 2013).

Biological target: 9-CM, simplified chorismate mutase composed of only nine different amino acids
Test: SEC; size-exclusion column after Ni-NTA affinity purification; dimer peak (major peak around 170 mL) isolated for each sample; small fraction of aggregates in the mutant proteins

**Q.** How did the stoichiometry N turn out when “9-CM, simplified chorismate mutase composed of only nine different amino acids (enzyme)” was run?
**A.** 2
